Experimental data reported in the supplement of paper PMC10899765.

What was measured:
Settings in all cases: 20 nM; 72 h
MCF10A [1] = test: one-nucleolus phenotype percent effect (relative to siNT 0% and siNOL11 100%); higher = more cells with one nucleolus (ribosome biogenesis inhibition)
Description: (§1)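 After 72 h, cells were fixed and stained with Hoechst and anti-fibrillarin, and nucleoli per nucleus were counted with CellProfiler. Values are plate-adjusted percent effect for the one-nucleolus and 5+ nucleoli phenotypes, normalised to siNT (0%) and to the positive controls siNOL11 or siKIF11 (100%), as the mean of biological triplicates. Percent viability is the nuclei count relative to siNT.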

MCF10A [2] = test: 5+ nucleoli phenotype percent effect (relative to siNT 0% and siKIF11 100%); higher = more cells with five or more nucleoli
Description: as §1

MCF10A [3] = test: percent viability (nuclei count relative to siNT); higher = more viable cells
Description: as §1

Sequence	one-nucleolus phenotype percent effect (MCF10A [1])	5+ nucleoli phenotype percent effect (MCF10A [2])	percent viability (MCF10A [3])
UGAGUACCGCCAUGUCUGUUGGG [hsa-miR-1911-5p]	-20.9%	17.2%	108%
UGAGUAUUACAUGGCCAAUCUC [hsa-miR-496]	11.1%	-15.6%	42%
UGAGUCAGCAACAUAUCCCAUG [hsa-miR-5702]	-25.5%	52.5%	86.4%
UGAGUGACAGGGGAAAUGGGGA [hsa-miR-1236-5p]	-0.0652%	-4.72%	36.9%
UGAGUGAUUGAUAGCUAUGUUC [hsa-miR-4765]	-19.8%	24.9%	52.9%
UGAGUGCCGGUGCCUGCCCUG [hsa-miR-1909-5p]	18.8%	-15.5%	46.8%
UGAGUGGGGCUCCCGGGACGGCG [hsa-miR-4745-5p]	-8.18%	25%	57.7%
UGAGUGUGUGUGUGUGAGUGUGU [hsa-miR-574-5p]	3.74%	-4.79%	42%
UGAGUGUUGUCUACGAGGGCA [hsa-miR-3659]	-0.683%	21.3%	59%
UGAGUUGGCCAUCUGAGUGAG [hsa-miR-571]	-7.45%	5.09%	84.6%
UGAUAUGUUUGAUAUAUUAGGU [hsa-miR-190a]	-13.2%	47.6%	116%
UGAUAUGUUUGAUAUUGGGUU [hsa-miR-190b]	21.8%	-11.2%	36%
UGAUCAGGCAAAAUUGCAGACU [hsa-miR-4772-5p]	9.01%	47.2%	17%
UGAUCUCACCGCUGCCUCCUUC [hsa-miR-4695-3p]	-9.6%	12.8%	93.9%
UGAUGAUACAGGUGGAGGUAG [hsa-miR-3682-3p]	19.3%	-7.38%	31.5%
UGAUGGAGCUGGGAAUACUCUG [hsa-miR-8082]	21.8%	-14.2%	22.3%
UGAUGGAUAAAAGACUACAUAUU [hsa-miR-3134]	23.3%	-19.7%	27.6%
UGAUUGGUACGUCUGUGGGUAG [hsa-miR-509-3p]	34%	-46.5%	37.8%
UGAUUGUAGCCUUUUGGAGUAGA [hsa-miR-508-3p]	23.4%	-32%	54.1%
UGAUUGUCCAAACGCAAUUCU [hsa-miR-219-5p]	-9.06%	14.5%	82.1%

Sequence	one-nucleolus phenotype percent effect (MCF10A [1])	5+ nucleoli phenotype percent effect (MCF10A [2])	percent viability (MCF10A [3])
UGAUUGUCUUCAUAUCUAGAAC [hsa-miR-4782-3p]	-0.93%	-13.9%	62%
UGAUUGUCUUCCCCCACCCUCA [hsa-miR-6766-3p]	1.17%	-20.7%	43.1%
UGCAAAAGUAAUCACAGUUUUU [hsa-miR-548f-5p]	-27.5%	23.9%	75.6%
UGCAAAAGUAAUUGCAGUUUUUG [hsa-miR-548aj-5p]	-16.2%	4.35%	81.8%
UGCAAAAGUAAUUGCAGUUUUUG [hsa-miR-548g-5p]	-17%	3.25%	73.1%
UGCAAAAGUAAUUGCAGUUUUUG [hsa-miR-548x-5p]	-9.86%	-24.2%	63%
UGCAACGAACCUGAGCCACUGA [hsa-miR-891a]	-1.85%	1.67%	57.7%
UGCAACUUACCUGAGUCAUUGA [hsa-miR-891b]	1.72%	-7.44%	41.4%
UGCAAGACGGAUACUGUCAUCU [hsa-miR-4696]	-7.62%	-15.7%	92.5%
UGCACAUGGCAACCUAGCUCCCA [hsa-miR-5589-3p]	6.29%	-1.16%	45.2%
UGCACCAUGGUUGUCUGAGCAUG [hsa-miR-767-5p]	-10.3%	8.28%	65.4%
UGCACGGCACUGGGGACACGU [hsa-miR-3177-3p]	33.1%	-18%	20.3%
UGCAGCUCUGGUGGAAAAUGGAG [hsa-miR-4660]	1.97%	-12.2%	43.5%
UGCAGGACCAAGAUGAGCCCU [hsa-miR-1286]	5.46%	1.93%	35.9%
UGCAGGGGUCGGGUGGGCCAGG [hsa-miR-6722-3p]	9%	-25.2%	45.7%
UGCAUCACAGCCUUUGGCCCUAG [hsa-miR-7112-3p]	-28%	45.4%	45.8%
UGCAUCAGGCCAGAAGACAUGAG [hsa-miR-4711-5p]	12.6%	-36.8%	23.9%
UGCAUGACCCUUCCCUCCCCAC [hsa-miR-6797-3p]	1.95%	-8.08%	31.8%
UGCCAACCGUCAGAGCCCAGA [hsa-miR-5189-3p]	-1.7%	-12%	59.9%
UGCCCAUGCCAUACUUUUGCCUCA [hsa-miR-4641]	5.53%	7.52%	78.6%

Sequence	one-nucleolus phenotype percent effect (MCF10A [1])	5+ nucleoli phenotype percent effect (MCF10A [2])	percent viability (MCF10A [3])
UGCCCCAACAAGGAAGGACAAG [hsa-miR-5699-5p]	-18.9%	43.5%	43.1%
UGCCCCACCUGCUGACCACCCUC [hsa-miR-4758-3p]	-20.9%	31.8%	76.4%
UGCCCCAUCUGUGCCCUGGGUAGGA [hsa-miR-3189-5p]	1.04%	42.8%	52.5%
UGCCCUAAAUGCCCCUUCUGGC [hsa-miR-18b-3p]	-2.3%	-9.28%	98.8%
UGCCCUCCUUUCUUCCCUC [hsa-miR-4290]	-1.5%	-8.55%	21.6%
UGCCCUGAGACUUUUGCUC [hsa-miR-7976]	17.4%	-8.65%	40.8%
UGCCCUGCAUGGUGUCCCCACAG [hsa-miR-6799-3p]	6.43%	-1.27%	41.1%
UGCCCUGCCUGUUUUCUCCUUU [hsa-miR-3173-5p]	-24.3%	35.2%	148%
UGCCCUUAAAGGUGAACCCAGU [hsa-miR-938]	6.19%	6.12%	57.4%
UGCCCUUCUCUCCUCCUGCCU [hsa-miR-6886-3p]	-6.37%	-2.46%	35.2%
UGCCGCCCUCUCGCUGCUCUAG [hsa-miR-4632-3p]	7.5%	-6.54%	64.2%
UGCCUACUGAGCUGAAACACAG [hsa-miR-24-2-5p]	7.59%	-9.36%	46.7%
UGCCUACUGAGCUGAUAUCAGU [hsa-miR-24-1-5p]	3.46%	-18%	49.2%
UGCCUAGGCUGAGACUGCAGUG [hsa-miR-3135a]	2.6%	1.84%	25.7%
UGCCUCCCUGACAUUCCACAG [hsa-miR-6778-3p]	10.1%	-21%	7.57%
UGCCUCCUCCGUGGCCUCAG [hsa-miR-6829-3p]	0.866%	-1.77%	22.7%
UGCCUCCUUGGUCUCCGGCAG [hsa-miR-6791-3p]	-3.74%	-9.62%	22.2%
UGCCUCUUUUCCACGGCCUCAG [hsa-miR-6781-3p]	-1.18%	2.23%	38.9%
UGCCUGGAACAUAGUAGGGACU [hsa-miR-3116]	2.45%	-20.8%	23.8%
